# Measurements as given in the supplement of paper PMC12338614.
# ± gives the uncertainty stated by the source.
# B1: library; numbered along this chain (parent)
# chain: MEVVDPQQLGMFTEGELMSVGMDTFIHRIDSTEVIYQPRRKRAKLIGKYLMGDLLGEGSYGKVKEVLDSETLCRRAVKILKKKKLRRIPNGEANVKKEIQLLRRLRHKNVIQLVDVLYNEEKQKMYMVMEYCVCGMQEMLDSVPEKRFPVCQAHGYFCQLIDGLEYLHSQGIVHKDIKPGNLLLTTGGTLKISDLGVAEALHPFAADDTCRTSQGSPAFQPPEIANGLDTFSGFKVDIWSAGVTLYNITTGLYPFEGDNIYKLFENIGKGSYAIPGDCGPPLSDLLKGMLEYEPAKRFSIRQIRQHSWFRKKHPPAEAPVPIPPSPDTKDRWRSMTVVPYLEDLHGADEDEDLFDIEDDIIYTQDFTVPGQVPEEEASHNGQRRGLPKAVCMNGTEAAQLSTKSRAEGRAPNPARKACSASSKIRRLSACKQQ
# Variants of: B1
# Test: STK11 functional score (HeLa growth suppression), rescaled enrichment; synonymous median = 1, nonsense median = 0 (normalised score)
# Conditions: with HeLa; variant type: missense
# How it was run: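 The functional score takes the post/pre-selection log ratio, corrects it to wild type, rescales it to synonymous and nonsense medians, and merges it over codons and replicate transfections, with error from bootstrapping. Counts came from tiled gDNA amplicons sequenced on NextSeq (~2 million reads per tile). The libraries were POPCode codon-randomised, codon-optimised STK11 integrated by Bxb1 at an AAVS1 landing pad in HeLa, three regions with three transfections each.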
row,Variant,STK11 functional score
1,S334H,1.05 ± 0.61
2,L17F,0.925 ± 0.58
3,L17I,0.851 ± 0.16
4,L17Q,1.71 ± 0.4
5,L17Y,1.6 ± 0.25
6,K96T,1.05 ± 0.082
7,L9I,1.37 ± 0.3
8,L80E,1.41 ± 0.38
9,L341M,1.63 ± 0.46
10,L341R,1.21 ± 0.14
11,Q214L,1.05 ± 0.15
12,H345F,1.41 ± 0.33
13,M392L,1.57 ± 0.29
14,T336A,1.52 ± 0.23
15,T336G,1.15 ± 0.16
16,E256L,1.52 ± 0.31
17,L50H,1.08 ± 0.14
18,S401M,1.44 ± 0.2
19,S299R,1.53 ± 0.18
20,L182G,0.327 ± 0.12
21,E130M,0.0424 ± 0.11
22,T32H,1.68 ± 0.17
23,L160R,-0.13 ± 0.095
24,L160H,0.212 ± 0.28

row,Variant,STK11 functional score
1,E121K,0.738 ± 0.69
2,F157M,0.503 ± 0.088
3,Q170L,0.967 ± 0.15
4,A398M,1.63 ± 0.18
5,A389P,1.3 ± 0.36
6,A389Y,1.15 ± 0.53
7,A389W,1.04 ± 0.2
8,Q100F,0.976 ± 0.19
9,I29G,1.16 ± 0.8
10,V110G,0.297 ± 0.079
11,M18E,1.56 ± 0.2
12,N94C,1.1 ± 0.2
13,I238V,1.21 ± 0.16
14,G163T,0.008 ± 0.28
15,I224S,1.31 ± 0.28
16,V337R,0.662 ± 0.2
17,C418A,1.62 ± 0.12
18,E291A,1.47 ± 0.44
19,G188Y,1.6 ± 0.23
20,M125Q,1.68 ± 0.17
21,M125K,1.04 ± 0.67
22,E92Q,1.16 ± 0.51
23,E92C,1.68 ± 0.18
24,A406E,1.45 ± 0.3

row,Variant,STK11 functional score
1,R331W,1.49 ± 0.27
2,G394D,1.32 ± 0.1
3,M129N,0.571 ± 0.13
4,V63G,0.711 ± 0.21
5,V63N,1.14 ± 0.097
6,F309I,1.38 ± 0.25
7,I161E,-0.456 ± 0.065
8,S283T,1.47 ± 0.17
9,H27L,1.35 ± 0.19
10,H27D,1.22 ± 0.62
11,K235Y,1.19 ± 0.36
12,K235C,1.4 ± 0.27
13,N259S,1.34 ± 0.38
14,A198L,1.13 ± 0.32
15,D358P,0.725 ± 0.8
16,L117W,1.29 ± 0.066
17,L117R,1.15 ± 0.13
18,Q305I,1.53 ± 0.14
19,Q305A,1.33 ± 0.15
20,Q305L,1.6 ± 0.16
21,G408I,1.51 ± 0.14
22,G408S,1.59 ± 0.26
23,L282W,0.522 ± 0.086
24,L282V,0.86 ± 0.23

row,Variant,STK11 functional score
1,Q433R,0.937 ± 0.57
2,T71R,0.849 ± 0.16
3,T71W,1.13 ± 0.14
4,D277S,0.886 ± 0.28
5,D277W,0.81 ± 0.57
6,Q159V,0.324 ± 0.074
7,C210H,1.42 ± 0.24
8,I79H,-0.113 ± 0.19
9,P281S,0.965 ± 0.17
10,P281Q,1.51 ± 0.31
11,P281E,1.3 ± 0.46
12,R103H,1.6 ± 0.32
13,Q7W,1.1 ± 0.13
14,Q7A,1 ± 0.43
15,S240V,0.33 ± 0.1
16,G91V,0.481 ± 0.08
17,P413A,1.5 ± 0.2
18,K64W,1.39 ± 0.16
19,L102I,1.26 ± 0.2
20,I35V,0.925 ± 0.11
21,K269G,1.46 ± 0.45
22,K269S,1.41 ± 0.19
23,H107W,0.165 ± 0.27
24,S378P,1.38 ± 0.24

row,Variant,STK11 functional score
1,K403M,0.00927 ± 0.14
2,Y156F,1.27 ± 0.084
3,Y156W,0.28 ± 0.076
4,D365G,1.55 ± 0.15
5,G227E,0.563 ± 0.19
6,Y261I,1.62 ± 0.16
7,T209A,1.2 ± 0.51
8,Y166D,-0.0245 ± 0.5
9,Y166V,1.14 ± 0.22
10,Y166L,0.75 ± 0.13
11,I322N,1.59 ± 0.44
12,Q364V,1.11 ± 0.14
13,S142H,1.44 ± 0.24
14,S142L,1.16 ± 0.2
15,P38R,0.891 ± 0.086
16,A410H,1.23 ± 0.54
17,A429G,1.12 ± 0.33
18,E57V,0.968 ± 0.17
19,E57M,1.26 ± 0.17
20,E57K,1.12 ± 0.74
21,S421F,1.08 ± 0.5
22,N181T,-0.449 ± 0.1
23,S31L,1.02 ± 0.091
24,P323A,1.15 ± 0.28

row,Variant,STK11 functional score
1,R40H,1.09 ± 0.64
2,K178W,0.413 ± 0.089
3,Q37C,0.0953 ± 0.088
4,Q37L,1.15 ± 0.3
5,Q123L,0.679 ± 0.16
6,I274Y,1.16 ± 0.29
7,N266H,1.29 ± 0.56
8,N266E,0.101 ± 0.94
9,N380W,1.04 ± 0.73
10,E223K,0.308 ± 0.41
11,A76F,0.0284 ± 0.091
12,P373D,1.58 ± 0.32
13,P221G,1.03 ± 0.14
14,R211L,1.21 ± 0.19
15,G135K,1.63 ± 0.18
16,Q399S,0.903 ± 0.3
17,A316W,0.538 ± 0.091
18,K191N,0.186 ± 0.16
19,F231A,1.61 ± 0.26
20,L344W,1.54 ± 0.19
21,V114S,0.384 ± 0.1
22,I99W,0.631 ± 0.11
23,G276L,1.11 ± 0.21
24,K311V,0.835 ± 0.47

row,Variant,STK11 functional score
1,K108R,1.33 ± 0.16
2,K108N,1.29 ± 0.46
3,K388Q,1.21 ± 0.43
4,K388W,1.5 ± 0.15
5,R39Q,0.277 ± 0.097
6,R39N,0.65 ± 0.66
7,N119F,1.16 ± 0.097
8,N119S,0.694 ± 0.11
9,N119H,1.3 ± 0.22
10,K124P,0.692 ± 0.35
11,R405V,1.62 ± 0.28
12,A218E,1.23 ± 0.24
13,Q137D,0.482 ± 0.11
14,Q137M,1.54 ± 0.059
15,C278Y,0.449 ± 0.12
16,E351S,1.4 ± 0.14
17,A43G,0.859 ± 0.32
18,S232H,1.3 ± 0.14
19,R87I,1.45 ± 0.17
20,N393M,1.48 ± 0.24
21,K146L,1.13 ± 0.13
22,Y131I,1.2 ± 0.3
23,Y131W,0.739 ± 0.093
